Experimental data: publication PMC7723414, “Cryo-EM structure of the calcium release-activated calcium channel Orai in an open conformation” (eLife, 2020)
Values belong to the binder of their own block, whether it stands above or below them.

What was measured:
[1] = molecular target: the molecule itself; assay: cryo-EM structure; Orai_(H206A) in amphipol A8-35 combined with 19B5 Fab at a molar ratio of 0.78:1 (Fab to Orai monomer), 5 mM CaCl2, 150 mM NaCl, 20 mM Tris pH 8.5, on ice 30 min; single particle analysis
[2] = molecular target: T1, Orai_(H206A) (Drosophila melanogaster Orai, amino acids 133-341, with C224S, C283T and H206A) (Drosophila melanogaster, UniProt Q9U6B8, C224S | C283T | H206A); assay: as above; details: both partners purified
T1 construct: construct identical to the one of Hou et al., 2018; Hexameric channel; The atomic model holds amino acids 156-305 except 217-239; also called H206A Orai; purified Orai_(H206A)

[3] = molecular target: T2, wild-type Orai (amino acids 120-351) with N-terminal mCherry tag (Drosophila melanogaster, UniProt Q9U6B8); assay: live-cell ELISA; intact HEK293 cells transfected with mCherry-tagged Orai constructs or vector; purified 19B5 IgG1 1 uM, 20 min, room temperature; HRP-conjugated secondary antibody, TMB, absorbance at 450 nm; details: one partner purified
T2 construct: Orai, Drosophila melanogaster, amino acids 120-351; Construct reported in Hou et al., 2018; vector modified from pNGFP-EU; also called Orai-mCherry; source: HEK293, transfected, on intact cells; not shown: mCherry, N-terminal, kept
T2 sequence (Q9U6B8 120-351): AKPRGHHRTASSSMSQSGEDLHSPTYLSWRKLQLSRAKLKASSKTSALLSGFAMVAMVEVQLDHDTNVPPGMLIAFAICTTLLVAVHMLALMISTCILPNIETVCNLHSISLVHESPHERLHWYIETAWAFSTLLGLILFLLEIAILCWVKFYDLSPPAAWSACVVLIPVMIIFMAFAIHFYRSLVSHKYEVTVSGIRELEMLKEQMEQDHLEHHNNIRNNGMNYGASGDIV

B1: Orai_(H206A) (Drosophila melanogaster Orai, amino acids 133-341, with C224S, C283T and H206A) (domain or fragment, UniProt Q9U6B8 133-341, looked up)
chain: MSQSGEDLHSPTYLSWRKLQLSRAKLKASSKTSALLSGFAMVAMVEVQLDHDTNVPPGMLIAFAICTTLLVAVAMLALMISTCILPNIETVSNLHSISLVHESPHERLHWYIETAWAFSTLLGLILFLLEIAILCWVKFYDLSPPAAWSATVVLIPVMIIFMAFAIHFYRSLVSHKYEVTVSGIRELEMLKEQMEQDHLEHHNNIRNNG
notes: construct identical to the one of Hou et al., 2018; Hexameric channel; The atomic model holds amino acids 156-305 except 217-239; also called H206A Orai; purified Orai_(H206A)
stoichiometry N [1]: 6 subunits per channel

stoichiometry N [2]: ≤ 3 Fabs per channel
B2: 19B5 Fab antibody fragment (Fab, V domains shown)
VH: EVQLVESGGGLVQPKGSLKLSCAASGFTFNTYAMHWVRQAPGKGLEWVARIRTKSNNYATYYADSVKDRFTISRDDSQSMLYLQMNNLKTEDTAMYYCVRQKYGNYFDYWGQGTTLTVSS
VL: DVVMTQSQKFMSTSVGDRVSVTCKASQNVGINVAWYQQKPGQSPKALINSASYRNSGVPDRFTGGGSGTDFTLTINNVQSEDLAEYFCQQCNSYPLTFGAGTKLELR
notes: the deposited model PDB 7KR5 holds the variable domains; mouse IgG1; Fab of the mouse monoclonal IgG1 19B5; source: IgG from mouse hybridoma cells, purified by ion exchange, cleaved with papain; Fab purified (Mono S, SEC)

binding result [3]: binds
B3: monoclonal antibody 19B5 (mouse IgG1) (antibody, V domains shown)
VH: EVQLVESGGGLVQPKGSLKLSCAASGFTFNTYAMHWVRQAPGKGLEWVARIRTKSNNYATYYADSVKDRFTISRDDSQSMLYLQMNNLKTEDTAMYYCVRQKYGNYFDYWGQGTTLTVSS
VL: DVVMTQSQKFMSTSVGDRVSVTCKASQNVGINVAWYQQKPGQSPKALINSASYRNSGVPDRFTGGGSGTDFTLTINNVQSEDLAEYFCQQCNSYPLTFGAGTKLELR
notes: as the heavy chain of m2 (variable domain in PDB 7KR5), whole mouse IgG1 heavy chain; as the light chain of m2 (variable domain in PDB 7KR5); IgG1; also called 19B5 antibody; Drosophila Orai-19B5 (mouse monoclonal); source: mouse hybridoma cells, purified by ion exchange chromatography
